Patent US20240327815A1

Experiments:
[1] = target: SARS-CoV-2 spike RBD-His (R&D Systems, cat #10500-CV) (SARS-CoV-2) (UniProt P0DTC2); test: SPR, 1:1 model
[2] = target: SARS-CoV-2 spike RBD-His (R&D Systems, cat #10500-CV) (SARS-CoV-2) (UniProt P0DTC2); test: SPR
[3] = target: full length wild type SARS-CoV-2 spike glycoprotein on pseudotyped lentivirus (SARS-CoV-2) (UniProt P0DTC2); test: cell-based or functional assay
[4] = target: WT SARS-CoV-2 spike protein, plate-coated (MSD V-Plex) (SARS-CoV-2) (UniProt P0DTC2); test: MSD competition vs labelled ACE2

Substance | Kd [1] [nM] | Kd [2] [nM] | Pseudovirus Neutralization (IC50, nM) [3] [nM] | IC50 [4] [nM] | Pseudovirus neutralization IC50 [3] [nM]
REGN10987 (Imdevimab) (antibody) | 0.0869 | 0.0869 |  |  | 
Sotrovimab (antibody) |  |  | 0.11 |  | 
REGN10933 (Casirivimab) (antibody) | 0.0708 | 0.0708 |  |  | 
Bamlanivimab + Etesevimab |  |  |  | 0.07 | 
REGEN-COV |  |  | 0.09 | 0.07 | 0.09
